Test results as given in patent US7897573B2, “Selective VPAC2 receptor peptide agonists” (priority 2005, dated 2011).
Where no end group is shown, it is not given here.

Experiments:
[1] = Pharmacokinetic profiles of PEGylated peptides in Fisher 344 rats; assay type: in vivo, rat; details: 100 μg agonist/kg, plasma RIA, mean N = 3
Method in brief: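 Healthy rats (n=3/group) received 100 μg agonist/kg in PBS, dose based on peptide content; route not given. Plasma sampled 3–168 h post-dose, peptide quantified by N-terminal-directed RIA, PK parameters derived by model-independent analysis.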

Human VPAC1 Receptor = target: T1, Human VPAC1 Receptor (Homo sapiens, UniProt P32241); test: Filter binding assay, 125I-labeled VIP, membranes of cells transiently transfected with human VPAC1; details: 125I-labeled VIP tracer
T1 construct: expressed in transfected cells
T1 sequence (P32241 31-457): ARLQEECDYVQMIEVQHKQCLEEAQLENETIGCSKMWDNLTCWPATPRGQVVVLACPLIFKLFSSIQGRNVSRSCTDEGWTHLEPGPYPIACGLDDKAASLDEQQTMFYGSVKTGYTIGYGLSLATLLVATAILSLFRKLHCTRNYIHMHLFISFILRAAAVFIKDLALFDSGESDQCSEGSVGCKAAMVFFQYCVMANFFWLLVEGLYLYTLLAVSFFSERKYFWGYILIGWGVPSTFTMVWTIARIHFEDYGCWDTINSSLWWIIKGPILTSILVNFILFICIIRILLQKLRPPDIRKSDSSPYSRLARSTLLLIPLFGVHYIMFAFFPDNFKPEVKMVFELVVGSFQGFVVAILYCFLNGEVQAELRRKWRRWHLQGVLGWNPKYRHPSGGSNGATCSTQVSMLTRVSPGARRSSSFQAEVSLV

[2] = Rat serum stability study (DiscoveRx cAMP read-out on CHO-VPAC2 cells); details: EC50, 4° C./EC50, 37° C., values >100% may represent release of intact peptide from the PEG conjugate; for 24 h stab (%): 24 h in rat serum at 37° C.; for 72 h stab (%): 72 h in rat serum at 37° C.
Method: In order to determine the stability of VPAC2 receptor peptide agonists in rat serum, CHO-VPAC2 cells clone #6 (96 well plates/50,000 cells/well and 1 day culture), PBS 1× (Gibco), the peptides for the analysis in a 100 μM stock solution, rat serum from a sacrificed normal Wistar rat, aprotinin, and a DiscoveRx assay kit are obtained. The rat serum is stored at 4° C. until use and is used within two weeks.
The aliquot is stored with aprotinin at 4° C. The aliquot is stored without aprotinin at 37° C. The aliquots are incubated for 24 or 72 hours.
On Day 1, after incubation of the aliquots prepared on day 0 for 24 or 72 hours, an incubation buffer containing PBS+1.3 mM CaCl2, 1.2 mM MgCl2, 2 mM glucose, and 0.25 mM IBMX is prepared. A plate with 11 serial 5× dilutions of peptide for the 4° C. and 37° C. aliquot is prepared for each peptide studied. […] The plate(s) are washed with cells twice in incubation buffer. The plates are allowed to hold 50 μL incubation media per well for 15 minutes. 50 μL solution per well is transferred to the cells from the plate prepared with 11 serial 5× dilutions of peptide for the 4° C. and 37° C. aliquot for each peptide studied, using the maximal concentrations that are indicated by the primary screen, in duplicate. This step dilutes the peptide concentration by a factor of two. The cells are incubated at room temperature for 30 minutes. The supernatant is removed. 40 μL/well of the DiscoveRx antibody/extraction buffer is added. The cells are incubated on the shaker (300 rpm) for 1 hour. Normal procedure with the DiscoveRx kit is followed. cAMP standards are included in column 12. EC50 values are determined from the cAMP assay data.

Human PAC1 Receptor = target: T2, Human PAC1 Receptor (Homo sapiens, UniProt P41586); test: Filter binding assay, 125I-labeled PACAP-27, membranes of cells transiently transfected with human PAC1; details: 125I-labeled PACAP-27 tracer
T2 construct: expressed in transfected cells
T2 sequence (P41586 21-468): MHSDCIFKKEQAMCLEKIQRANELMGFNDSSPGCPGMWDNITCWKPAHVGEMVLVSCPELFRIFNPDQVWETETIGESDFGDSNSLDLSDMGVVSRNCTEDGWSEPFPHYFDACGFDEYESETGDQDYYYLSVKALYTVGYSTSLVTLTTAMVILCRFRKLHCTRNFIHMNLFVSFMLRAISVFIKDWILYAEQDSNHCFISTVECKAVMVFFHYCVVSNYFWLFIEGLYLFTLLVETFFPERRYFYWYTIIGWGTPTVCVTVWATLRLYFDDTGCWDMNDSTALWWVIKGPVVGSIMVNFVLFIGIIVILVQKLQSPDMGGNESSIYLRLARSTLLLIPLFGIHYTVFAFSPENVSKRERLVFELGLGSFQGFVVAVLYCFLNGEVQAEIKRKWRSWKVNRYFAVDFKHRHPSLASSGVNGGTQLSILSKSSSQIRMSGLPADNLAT
Method: For this assay, the solutions and equipment include:
Presoak solution: 0.5% Polyethyleneamine in Aqua dest
Buffer for flushing filter plates: 25 mM HEPES pH 7.4
Blocking buffer: 25 mM HEPES pH 7.4; 0.2% protease free BSA
Assay buffer: 25 mM HEPES pH 7.4; 0.5% protease free BSA
Dilution and assay plate: PS-Microplate, U form
Filtration Plate Multiscreen FB Opaque Plate; […] Type B Glasfiber filter
In order to prepare the filter plates, the presoak solution is aspirated by vacuum filtration. The plates are flushed twice with 200 μL flush buffer. 200 μL blocking buffer is added to the filter plate. The filter plate is then incubated with 200 μL presoak solution for 1 hour at room temperature.
The assay plate is filled with 25 μL assay buffer, 25 μL membranes (2.5 μg) suspended in assay buffer, 25 μL agonist in assay buffer, and 25 μL tracer (about 40000 cpm) in assay buffer. The filled plate is incubated for 1 hour with shaking.
The transfer from assay plate to filter plate is conducted. The blocking buffer is aspirated by vacuum filtration and washed two times with flush buffer. 90 μL is transferred from the assay plate to the filter plate. The 90 μL transferred from assay plate is aspirated and washed three times with 200 μL flush buffer. The plastic support is removed. It is dried for 1 hour at 60° C. 30 μL Microscint is added. The count is performed.

Normal Wistar rats = test: Intravenous glucose tolerance test (IVGTT); assay type: in vivo, rat; details: for insulin response to the i.v. glucose challenge: FIG. 1, animals treated 24 h prior to the glucose injection, versus vehicle-treated animals
Method: Intravenous glucose tolerance test (IVGTT): Normal Wistar rats are fasted overnight and are anesthetized prior to the experiment. A blood sampling catheter is inserted into the rats. The agonist is given subcutaneously, normally 24 h prior to the glucose challenge. Blood samples are taken from the carotid artery. A blood sample is drawn immediately prior to the injection of glucose along with the agonist. After the initial blood sample, glucose mixed is injected intravenously (i.v.). A glucose challenge of 0.5 g/kg body weight is given, injecting a total of 1.5 mL vehicle with glucose and agonist per kg body weight. The peptide concentrations are varied to produce the desired dose in μg/kg. Blood samples are drawn at 2, 4, 6 and 10 minutes after giving glucose. The control group of animals receives the same vehicle along with glucose, but with no agonist added. In some instances, 20 and 30 minute post-glucose blood samples were drawn. Aprotinin is added to the blood sample (250-500 kIU/ml blood). The plasma is then analyzed for glucose and insulin using standard methodologies.
The assay uses a formulated and calibrated peptide stock in PBS. Normally, this stock is a prediluted 100 μM stock. However, a more concentrated stock with approximately 1 mg agonist per mL is used. The specific concentration is always known. Variability in the maximal response is mostly due to variability in the vehicle dose.

[3] = AUC insulin, 0-10 min after glucose, 24 h between glucose & compound, Wistar rats

Substance | AUC0-last [1] | Cl/F [1] | Cmax [1] | Tmax [1] | T½ [1] | IC50 (Human VPAC1 Receptor) | 24 h stab (%) [2] | 72 h stab (%) [2] | IC50 (Human PAC1 Receptor) | % increase AUC: Dose = 0.1 mg/kg (Normal Wistar rats; [3]) | % increase AUC: Dose = 0.3 mg/kg (Normal Wistar rats; [3]) | insulin response to the i.v. glucose challenge (Normal Wistar rats) | % increase AUC: Dose = 0.09 mg/kg (Normal Wistar rats; AUC insulin, 0-10 min after glucose, 0.09 mg/kg, 24 h between glucose & compound, Wistar rats)
C6-HSDAVFTEQY(OMe)TOrnLRAibQVAAAibOrnYLQSIOrnC(PEG20K)OrnGGPSSGAPPPC(PEG20K)-NH2 (HSDAVFTEQYTXLRXQVAAXXYLQSIXCXGGPSSGAPPPC; C6 acyl, two PEG20K, C-terminal amide; Synthetic sequence PEGylated VPAC2 receptor agonist) [Agonist P505] | 7006 ng·h/mL | 0.217 mL/min/kg | 160 ng/mL | 12 h | 22 h | > 25000 nM | 133% | 161% | > 25000 nM | 12% | 74% | enhancement of the insulin response | –
C6-HSDAVFTEQY(OMe)TOrnLRAibQLAAbuAibOrnyAibQSIOrnOrnGGPSSGAPPPC(PEG30K)C(PEG30K)-NH2 (HSDAVFTEQYTXLRXQLAXXXYXQSIXXGGPSSGAPPPCC; not fully specified (some residues, N-terminus, C-terminus); printed as C6-HSDAVFTEQY(OMe)TOrnLRAibQLAAbuAibOrnyAibQSIOrnOrnGGPSSGAPPPC(PEG30K)C(PEG30K)-NH2; cysteine pairing not given here) [Agonist P602] | – | – | – | – | – | > 25000 nM | 573% | – | > 25000 nM | – | 198% | – | 73%
C6-HSDAVFTEQY(OMe)TOrnLRAibQLAAbuAibOrnYAibQAibIOrnOrnGGPSSGAPPPC(PEG20K)C(PEG20K)-NH2 (HSDAVFTEQYTXLRXQLAXXXYXQXIXXGGPSSGAPPPCC; C6 acyl, two PEG20K, C-terminal amide; Synthetic sequence PEGylated VPAC2 receptor agonist) [Agonist P525] | 4740 ng·h/mL | 0.333 mL/min/kg | 133 ng/mL | 16 h | 22 h | > 25000 nM | 298% | 353% | > 25000 nM | 72% | 208% | enhancement of the insulin response | –
C6-HSDAVFTEQY(OMe)TOrnLRAibQLAAbuAibOrnyLQAibIOrnOrnGGPSSGAPPPC(PEG30K)C(PEG30K)-NH2 (HSDAVFTEQYTXLRXQLAXXXYLQXIXXGGPSSGAPPPCC; not fully specified (some residues, N-terminus, C-terminus); printed as C6-HSDAVFTEQY(OMe)TOrnLRAibQLAAbuAibOrnyLQAibIOrnOrnGGPSSGAPPPC(PEG30K)C(PEG30K)-NH2; cysteine pairing not given here) [Agonist P570] | 3891 ng·h/mL | 0.417 mL/min/kg | 71 ng/mL | 20 h | 25 h | > 25000 nM | – | – | > 25000 nM | 36% | – | – | –
C6-HSDAVFTEQY(OMe)TOrnLRAibQVAAbuAibOrnYLQAibIOrnOrnGGPSSGAPPPC(PEG40K)-NH2 (HSDAVFTEQYTXLRXQVAXXXYLQXIXXGGPSSGAPPPC; C6 acyl, PEG40K on Cys, C-terminal amide; Synthetic sequence PEGylated VPAC2 receptor agonist) [Agonist P511] | 3067 ng·h/mL | – | 100 ng/mL | 16 h | – | > 25000 nM | – | – | > 25000 nM | 38% | 59% | – | –
